From CN112661841A (GUANGZHOU 8TH PEOPLES HOSPITAL, dated 2021)

What was measured:
[1] = target: T1, SARS-CoV-2 S蛋白 (SARS-CoV-2, UniProt P0DTC2 16-1213); experiment: ELISA, antibody on S protein
[2] = target: T2, SARS-CoV-2 S2蛋白 (SARS-CoV-2, UniProt P0DTC2 686-1213); experiment: ELISA, antibody on S2 protein
T2 construct: domain: S2

[3] = target: T3, SARS-CoV-2 S1蛋白 (SARS-CoV-2, UniProt P0DTC2 16-685); experiment: ELISA
T3 construct: domain: S1

[4] = target: T1, SARS-CoV-2 S蛋白; experiment: cell-based or functional assay

B1: 全人单克隆抗体17-2 (antibody, V domains shown)
VH: QLQLQESGPGLVKASETLSLTCTVSSGSVSSDSYYWSWIRQPPGKGLEWIGYIYYSGSTNYNPSLKSRVTMSVDTSKNQFSLKLDSVTAADTAAYYCARGPLGLYYYYMDVWGKGTTVTVSS
VL: DIQMTQSPSSLSASVGDRVTITCRASQSINNYLNWYQQKPGKAPKLLIYAASSLQSGVPSRFSGSGSGTDFALTISGLQPEDFATYYCQESNSSPFTFGPGTKVDIK
notes: also called 17-2抗体
**Q.** How did the EC50 [1] turn out when B1 was run?
**A.** 0.034 µg/mL

**Q.** And the EC50 [2]?
**A.** 0.038 µg/mL

**Q.** Does B1 bind [3]?
**A.** no binding

**Q.** What about the “假病毒中和实验 IC50” value [4] of the same binder?
**A.** 0.587 µg/mL
